Reference: PMC9482650, “Quantitative fragmentomics allow affinity mapping of interactomes” (Nature Communications, 2022)

Tests used:
Assay in all cases: holdup assay
Set-up in all cases: key: below the threshold = too weak to quantify, mostly under pKd 3.1 to 4
DFNB31_1, Q9P202 = target: T1, DFNB31_1, Q9P202
T1 sequence (Q9P202 135-233, limits assumed, looked up): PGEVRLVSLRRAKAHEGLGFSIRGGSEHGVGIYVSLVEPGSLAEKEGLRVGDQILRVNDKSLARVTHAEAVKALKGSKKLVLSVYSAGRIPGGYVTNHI

DFNB31_2, Q9P202 = target: T2, DFNB31_2, Q9P202
T2 sequence (Q9P202 274-371, limits assumed, looked up): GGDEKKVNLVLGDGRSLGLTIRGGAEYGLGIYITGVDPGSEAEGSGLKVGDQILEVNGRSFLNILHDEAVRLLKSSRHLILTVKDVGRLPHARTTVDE

DLG3_3, Q92796 = target: T3, DLG3_3, Q92796
T3 sequence (Q92796 374-475, limits assumed, looked up): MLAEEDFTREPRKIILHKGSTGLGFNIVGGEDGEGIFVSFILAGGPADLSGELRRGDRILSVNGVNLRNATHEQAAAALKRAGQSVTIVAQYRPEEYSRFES

DLG5_1, Q8TDM6 = target: DLG5_1, Q8TDM6
DVL3, Q92997 = target: T4, DVL3, Q92997
T4 sequence (Q92997 244-331, limits assumed, looked up): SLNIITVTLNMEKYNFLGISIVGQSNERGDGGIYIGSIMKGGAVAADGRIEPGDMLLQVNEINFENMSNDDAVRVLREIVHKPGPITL

FRMPD2_3, Q68DX3 = target: FRMPD2_3, Q68DX3
GORASP2, Q9H8Y8 = target: GORASP2, Q9H8Y8
GRIP2_5, Q9C0E4 = target: GRIP2_5, Q9C0E4
HTRA4, P83105 = target: T5, HTRA4, P83105
T5 sequence (P83105 378-476, limits assumed, looked up): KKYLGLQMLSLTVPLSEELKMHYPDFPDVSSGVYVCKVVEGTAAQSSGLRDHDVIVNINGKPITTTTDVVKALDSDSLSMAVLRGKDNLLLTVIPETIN

IL16_1, Q14005 = target: IL16_1, Q14005
IL16_4, Q14005 = target: IL16_4, Q14005
Inadl_8, Q8NI35 = target: Inadl_8, Q8NI35
LIMK2, P53671 = target: LIMK2, P53671
LIN7B, Q9HAP6 = target: T6, LIN7B, Q9HAP6
T6 sequence (Q9HAP6 88-185, limits assumed, looked up): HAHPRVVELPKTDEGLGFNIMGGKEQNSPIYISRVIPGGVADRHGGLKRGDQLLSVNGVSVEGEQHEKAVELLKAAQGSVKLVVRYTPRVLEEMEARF

MPDZ_10, O75970 = target: T7, MPDZ_10, O75970
T7 sequence (O75970 1624-1722, limits assumed, looked up): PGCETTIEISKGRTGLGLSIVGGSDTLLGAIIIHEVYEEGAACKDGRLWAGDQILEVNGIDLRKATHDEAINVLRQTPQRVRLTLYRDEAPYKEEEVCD

NHERF3_1, Q5T2W1 = target: T8, NHERF3_1, Q5T2W1
T8 sequence (Q5T2W1 4-100, limits assumed, looked up): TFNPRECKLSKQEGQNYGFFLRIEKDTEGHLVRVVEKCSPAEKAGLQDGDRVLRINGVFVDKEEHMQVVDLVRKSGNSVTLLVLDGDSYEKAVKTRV

NOS1, P29475 = target: NOS1, P29475
PARD3_3, Q8TEW0 = target: PARD3_3, Q8TEW0
PDLIM1, O00151 = target: PDLIM1, O00151
RAPGEF6, Q8TEU7 = target: T9, RAPGEF6, Q8TEU7
T9 sequence (Q8TEU7 525-625, limits assumed, looked up): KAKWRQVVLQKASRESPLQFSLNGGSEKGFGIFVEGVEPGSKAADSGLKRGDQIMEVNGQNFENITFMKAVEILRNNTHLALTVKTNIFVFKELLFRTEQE

SCRIB_1, Q14160 = target: SCRIB_1, Q14160
SNTA1, Q13424 = target: T10, SNTA1, Q13424
T10 sequence (Q13424 82-180, limits assumed, looked up): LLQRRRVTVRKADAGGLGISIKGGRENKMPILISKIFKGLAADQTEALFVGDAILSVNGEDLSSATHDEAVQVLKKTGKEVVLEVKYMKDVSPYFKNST

SNTG1, Q9NSN8 = target: T11, SNTG1, Q9NSN8
T11 sequence (Q9NSN8 52-150, limits assumed, looked up): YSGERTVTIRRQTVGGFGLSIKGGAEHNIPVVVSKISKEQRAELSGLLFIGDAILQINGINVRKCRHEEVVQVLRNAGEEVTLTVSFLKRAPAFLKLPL

SNTG2, Q9NY99 = target: T12, SNTG2, Q9NY99
T12 sequence (Q9NY99 68-166, limits assumed, looked up): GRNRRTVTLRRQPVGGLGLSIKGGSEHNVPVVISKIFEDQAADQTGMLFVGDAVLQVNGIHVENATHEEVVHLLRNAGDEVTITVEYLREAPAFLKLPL

TIAM2, Q8IVF5 = target: T13, TIAM2, Q8IVF5
T13 sequence (Q8IVF5 885-986, limits assumed, looked up): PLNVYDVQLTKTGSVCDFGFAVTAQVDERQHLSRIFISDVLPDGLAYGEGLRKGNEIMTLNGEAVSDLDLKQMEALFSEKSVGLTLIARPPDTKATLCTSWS

[1] = plain residues with an end cap or a label only (N-terminal biotin on a linker: ado-ado)
[2] = modified: phospho on T at position -2 from the C-terminal residue

LIMK2, P53671, sequence (P53671 143-248): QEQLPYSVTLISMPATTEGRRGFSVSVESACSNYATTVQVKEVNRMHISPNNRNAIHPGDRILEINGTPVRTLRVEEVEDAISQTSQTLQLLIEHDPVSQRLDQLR
FRMPD2_3, Q68DX3, sequence (Q68DX3 1073-1166): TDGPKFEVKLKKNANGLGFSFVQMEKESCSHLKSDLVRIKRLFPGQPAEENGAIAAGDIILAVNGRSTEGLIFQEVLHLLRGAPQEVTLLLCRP
PDLIM1, O00151, sequence (O00151 1-87): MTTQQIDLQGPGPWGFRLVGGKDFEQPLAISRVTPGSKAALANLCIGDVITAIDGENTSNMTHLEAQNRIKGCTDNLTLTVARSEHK
GRIP2_5, Q9C0E4, sequence (Q9C0E4 544-642): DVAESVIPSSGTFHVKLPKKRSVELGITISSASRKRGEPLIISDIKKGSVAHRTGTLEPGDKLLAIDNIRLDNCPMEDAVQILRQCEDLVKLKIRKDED
PARD3_3, Q8TEW0, sequence (Q8TEW0 582-685): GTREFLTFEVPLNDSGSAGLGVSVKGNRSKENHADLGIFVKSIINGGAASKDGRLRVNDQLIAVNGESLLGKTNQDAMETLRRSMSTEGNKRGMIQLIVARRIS
Inadl_8, Q8NI35, sequence (Q8NI35 1425-1530): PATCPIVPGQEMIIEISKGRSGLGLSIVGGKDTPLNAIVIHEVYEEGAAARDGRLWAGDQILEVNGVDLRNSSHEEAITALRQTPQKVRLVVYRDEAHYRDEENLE
SCRIB_1, Q14160, sequence (Q14160 718-814): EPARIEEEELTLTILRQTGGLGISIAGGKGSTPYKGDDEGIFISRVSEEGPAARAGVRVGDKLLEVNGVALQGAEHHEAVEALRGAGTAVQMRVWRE
DLG5_1, Q8TDM6, sequence (Q8TDM6 617-713): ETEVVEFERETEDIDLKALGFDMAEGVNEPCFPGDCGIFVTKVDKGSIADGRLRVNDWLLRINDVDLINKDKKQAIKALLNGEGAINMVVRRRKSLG
IL16_4, Q14005, sequence (Q14005 1229-1329): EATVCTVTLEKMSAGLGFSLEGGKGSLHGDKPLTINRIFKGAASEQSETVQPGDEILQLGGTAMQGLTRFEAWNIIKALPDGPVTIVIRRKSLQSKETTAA
IL16_1, Q14005, sequence (Q14005 210-306): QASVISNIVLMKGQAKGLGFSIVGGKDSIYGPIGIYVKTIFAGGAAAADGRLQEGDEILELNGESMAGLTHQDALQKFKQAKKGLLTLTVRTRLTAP
NOS1, P29475, sequence (P29475 9-101): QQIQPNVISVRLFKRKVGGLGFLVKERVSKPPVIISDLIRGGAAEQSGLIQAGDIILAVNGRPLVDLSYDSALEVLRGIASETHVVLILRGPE

GVHSNDHSVV [LPAR1, Q92633]
pKd (DFNB31_1, Q9P202; [1]): below the threshold | pKd (DFNB31_2, Q9P202; [1]): below the threshold | pKd (DLG3_3, Q92796; [1]): below the threshold | pKd (DLG5_1, Q8TDM6; [1]): below the threshold | pKd (DVL3, Q92997; [1]): below the threshold | pKd (FRMPD2_3, Q68DX3; [1]): below the threshold | pKd (GORASP2, Q9H8Y8; [1]): 3.61 | pKd (GRIP2_5, Q9C0E4; [1]): below the threshold | pKd (HTRA4, P83105; [1]): below the threshold | pKd (IL16_1, Q14005; [1]): 4.02 | pKd (IL16_4, Q14005; [1]): 3.76 | pKd (Inadl_8, Q8NI35; [1]): 3.62 | pKd (LIMK2, P53671; [1]): below the threshold | pKd (LIN7B, Q9HAP6; [1]): 3.64 | pKd (MPDZ_10, O75970; [1]): below the threshold | pKd (NHERF3_1, Q5T2W1; [1]): below the threshold | pKd (NOS1, P29475; [1]): below the threshold | pKd (PARD3_3, Q8TEW0; [1]): below the threshold | pKd (PDLIM1, O00151; [1]): below the threshold | pKd (RAPGEF6, Q8TEU7; [1]): below the threshold | pKd (SCRIB_1, Q14160; [1]): below the threshold | pKd (SNTA1, Q13424; [1]): 3.68 | pKd (SNTG1, Q9NSN8; [1]): below the threshold | pKd (SNTG2, Q9NY99; [1]): below the threshold | pKd (TIAM2, Q8IVF5; [1]): 3.94

QLKSGRDSTV [TMEM178A, Q8NBL3]
pKd (DFNB31_1, Q9P202; [1]): 3.6 | pKd (DFNB31_2, Q9P202; [1]): 3.52 | pKd (DLG3_3, Q92796; [1]): 3.66 | pKd (DLG5_1, Q8TDM6; [1]): 3.83 | pKd (DVL3, Q92997; [1]): below the threshold | pKd (FRMPD2_3, Q68DX3; [1]): below the threshold | pKd (GORASP2, Q9H8Y8; [1]): below the threshold | pKd (GRIP2_5, Q9C0E4; [1]): below the threshold | pKd (HTRA4, P83105; [1]): below the threshold | pKd (IL16_1, Q14005; [1]): below the threshold | pKd (IL16_4, Q14005; [1]): 3.83 | pKd (Inadl_8, Q8NI35; [1]): 3.7 | pKd (LIMK2, P53671; [1]): below the threshold | pKd (LIN7B, Q9HAP6; [1]): below the threshold | pKd (MPDZ_10, O75970; [1]): 3.63 | pKd (NHERF3_1, Q5T2W1; [1]): below the threshold | pKd (NOS1, P29475; [1]): 3.52 | pKd (PARD3_3, Q8TEW0; [1]): 3.5 | pKd (PDLIM1, O00151; [1]): below the threshold | pKd (RAPGEF6, Q8TEU7; [1]): below the threshold | pKd (SCRIB_1, Q14160; [1]): 3.56 | pKd (SNTA1, Q13424; [1]): 3.88 | pKd (SNTG1, Q9NSN8; [1]): 3.81 | pKd (SNTG2, Q9NY99; [1]): 3.77 | pKd (TIAM2, Q8IVF5; [1]): below the threshold

SRSRRRETAL [HPV33-E6_-2P, P06427]
pKd (DFNB31_1, Q9P202; [2]): below the threshold | pKd (DFNB31_2, Q9P202; [2]): below the threshold | pKd (DLG3_3, Q92796; [2]): below the threshold | pKd (DLG5_1, Q8TDM6; [2]): below the threshold | pKd (DVL3, Q92997; [2]): below the threshold | pKd (FRMPD2_3, Q68DX3; [2]): below the threshold | pKd (GORASP2, Q9H8Y8; [2]): below the threshold | pKd (GRIP2_5, Q9C0E4; [2]): below the threshold | pKd (HTRA4, P83105; [2]): below the threshold | pKd (IL16_1, Q14005; [2]): below the threshold | pKd (IL16_4, Q14005; [2]): below the threshold | pKd (Inadl_8, Q8NI35; [2]): below the threshold | pKd (LIMK2, P53671; [2]): below the threshold | pKd (LIN7B, Q9HAP6; [2]): below the threshold | pKd (MPDZ_10, O75970; [2]): below the threshold | pKd (NHERF3_1, Q5T2W1; [2]): below the threshold | pKd (NOS1, P29475; [2]): 3.75 | pKd (PARD3_3, Q8TEW0; [2]): below the threshold | pKd (PDLIM1, O00151; [2]): below the threshold | pKd (RAPGEF6, Q8TEU7; [2]): below the threshold | pKd (SCRIB_1, Q14160; [2]): below the threshold | pKd (SNTA1, Q13424; [2]): below the threshold | pKd (SNTG1, Q9NSN8; [2]): below the threshold | pKd (SNTG2, Q9NY99; [2]): below the threshold | pKd (TIAM2, Q8IVF5; [2]): below the threshold

SAGADSETHC [SLCO1B1, Q9Y6L6]
pKd (DFNB31_1, Q9P202; [1]): below the threshold | pKd (DFNB31_2, Q9P202; [1]): below the threshold | pKd (DLG3_3, Q92796; [1]): below the threshold | pKd (DLG5_1, Q8TDM6; [1]): below the threshold | pKd (DVL3, Q92997; [1]): below the threshold | pKd (FRMPD2_3, Q68DX3; [1]): below the threshold | pKd (GORASP2, Q9H8Y8; [1]): below the threshold | pKd (GRIP2_5, Q9C0E4; [1]): below the threshold | pKd (HTRA4, P83105; [1]): below the threshold | pKd (IL16_1, Q14005; [1]): below the threshold | pKd (IL16_4, Q14005; [1]): below the threshold | pKd (Inadl_8, Q8NI35; [1]): below the threshold | pKd (LIMK2, P53671; [1]): below the threshold | pKd (LIN7B, Q9HAP6; [1]): 3.69 | pKd (MPDZ_10, O75970; [1]): below the threshold | pKd (NHERF3_1, Q5T2W1; [1]): 3.68 | pKd (NOS1, P29475; [1]): below the threshold | pKd (PARD3_3, Q8TEW0; [1]): below the threshold | pKd (PDLIM1, O00151; [1]): below the threshold | pKd (RAPGEF6, Q8TEU7; [1]): below the threshold | pKd (SCRIB_1, Q14160; [1]): 3.68 | pKd (SNTA1, Q13424; [1]): below the threshold | pKd (SNTG1, Q9NSN8; [1]): 3.66 | pKd (SNTG2, Q9NY99; [1]): 3.61 | pKd (TIAM2, Q8IVF5; [1]): below the threshold

DYSNLRETDI [ADRA1D, P25100]
pKd (DFNB31_1, Q9P202; [1]): 5.02 | pKd (DFNB31_2, Q9P202; [1]): below the threshold | pKd (DLG3_3, Q92796; [1]): below the threshold | pKd (DLG5_1, Q8TDM6; [1]): 3.5 | pKd (DVL3, Q92997; [1]): below the threshold | pKd (FRMPD2_3, Q68DX3; [1]): below the threshold | pKd (GORASP2, Q9H8Y8; [1]): below the threshold | pKd (GRIP2_5, Q9C0E4; [1]): below the threshold | pKd (HTRA4, P83105; [1]): 3.75 | pKd (IL16_1, Q14005; [1]): 3.59 | pKd (IL16_4, Q14005; [1]): below the threshold | pKd (Inadl_8, Q8NI35; [1]): 3.56 | pKd (LIMK2, P53671; [1]): below the threshold | pKd (LIN7B, Q9HAP6; [1]): 3.62 | pKd (MPDZ_10, O75970; [1]): below the threshold | pKd (NHERF3_1, Q5T2W1; [1]): below the threshold | pKd (NOS1, P29475; [1]): below the threshold | pKd (PARD3_3, Q8TEW0; [1]): 3.51 | pKd (PDLIM1, O00151; [1]): below the threshold | pKd (RAPGEF6, Q8TEU7; [1]): below the threshold | pKd (SCRIB_1, Q14160; [1]): 4.95 | pKd (SNTA1, Q13424; [1]): 5.71 | pKd (SNTG1, Q9NSN8; [1]): 5.55 | pKd (SNTG2, Q9NY99; [1]): 5.05 | pKd (TIAM2, Q8IVF5; [1]): below the threshold
